In publication PMC9482650, “Quantitative fragmentomics allow affinity mapping of interactomes” (Nature Communications, 2022):

T1: GRIP1_3, Q9Y3R0
T1 sequence (Q9Y3R0 247-346, limits assumed, looked up): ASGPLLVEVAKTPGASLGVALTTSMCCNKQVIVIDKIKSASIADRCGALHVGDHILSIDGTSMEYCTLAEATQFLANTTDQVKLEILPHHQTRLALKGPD

T2: MPDZ_12, O75970
T2 sequence (O75970 1857-1958, limits assumed, looked up): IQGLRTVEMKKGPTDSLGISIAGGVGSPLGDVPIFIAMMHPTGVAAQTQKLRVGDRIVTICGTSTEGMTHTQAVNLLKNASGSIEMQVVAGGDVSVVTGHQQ

T3: PDZD7_3, Q9H5P4
T3 sequence (Q9H5P4 857-944, limits assumed, looked up): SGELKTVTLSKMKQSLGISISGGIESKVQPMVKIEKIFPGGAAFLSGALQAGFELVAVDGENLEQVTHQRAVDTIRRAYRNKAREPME

T4: APBA2_2, Q99767
T4 sequence (Q99767 654-744, limits assumed, looked up): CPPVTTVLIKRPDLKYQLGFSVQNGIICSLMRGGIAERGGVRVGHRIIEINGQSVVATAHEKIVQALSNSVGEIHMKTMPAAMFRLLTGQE

T5: DFNB31_3, Q9P202
T5 sequence (Q9P202 811-907, limits assumed, looked up): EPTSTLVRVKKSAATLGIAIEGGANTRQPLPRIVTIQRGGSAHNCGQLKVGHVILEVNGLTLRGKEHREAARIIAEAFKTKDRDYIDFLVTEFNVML

T6: GRIP1_7, Q9Y3R0
T6 sequence (Q9Y3R0 999-1096, limits assumed, looked up): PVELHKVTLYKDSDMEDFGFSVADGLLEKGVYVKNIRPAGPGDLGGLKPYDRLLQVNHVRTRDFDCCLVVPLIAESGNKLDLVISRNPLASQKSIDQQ

T7: SYNJ2BP, P57105
T7 sequence (P57105 8-110, limits assumed, looked up): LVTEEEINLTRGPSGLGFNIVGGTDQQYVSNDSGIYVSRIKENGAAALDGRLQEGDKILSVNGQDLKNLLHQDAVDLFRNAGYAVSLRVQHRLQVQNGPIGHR

T8: DFNB31_2, Q9P202
T8 sequence (Q9P202 274-371, limits assumed, looked up): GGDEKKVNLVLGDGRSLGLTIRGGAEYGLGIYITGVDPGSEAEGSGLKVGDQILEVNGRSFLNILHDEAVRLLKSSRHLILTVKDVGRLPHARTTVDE

T9: SHANK1, Q9Y566
T9 sequence (Q9Y566 658-767, limits assumed, looked up): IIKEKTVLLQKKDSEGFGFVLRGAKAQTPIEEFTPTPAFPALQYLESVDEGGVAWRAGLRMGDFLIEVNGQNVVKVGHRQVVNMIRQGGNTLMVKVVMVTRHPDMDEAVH

T10: PTPN13_1, Q12923
T10 sequence (Q12923 1088-1188, limits assumed, looked up): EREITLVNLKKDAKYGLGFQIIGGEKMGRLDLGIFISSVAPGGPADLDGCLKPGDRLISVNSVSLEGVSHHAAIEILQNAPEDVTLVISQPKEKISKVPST

T11: MPP6, Q9NZW5
T11 sequence (Q9NZW5 125-219, limits assumed, looked up): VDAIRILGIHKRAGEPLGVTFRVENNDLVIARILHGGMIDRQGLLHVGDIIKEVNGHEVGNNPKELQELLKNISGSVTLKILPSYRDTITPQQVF

T12: APBA1_1, Q02410
T12 sequence (Q02410 651-752, limits assumed, looked up): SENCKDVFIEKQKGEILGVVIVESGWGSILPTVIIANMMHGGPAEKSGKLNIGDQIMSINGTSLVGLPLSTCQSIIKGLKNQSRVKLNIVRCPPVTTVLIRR


Legend:
Experiment in all cases: holdup assay
Parameters in all cases: key: below the threshold = too weak to quantify, mostly under pKd 3.1 to 4
Settings in all cases: plain residues with an end cap or a label only (N-terminal biotin on a linker: ado-ado)
[1] = target: MAGI1_1, Q96QZ7
[2] = target: T1, GRIP1_3, Q9Y3R0
[3] = target: GOPC, Q9HD26
[4] = target: MAST1, Q9Y2H9
[5] = target: Inadl_8, Q8NI35
[6] = target: NHERF2_2, Q15599
[7] = target: T2, MPDZ_12, O75970
[8] = target: T3, PDZD7_3, Q9H5P4
[9] = target: T4, APBA2_2, Q99767
[10] = target: FRMPD2_2, Q68DX3
[11] = target: MAGI1_2, Q96QZ7
[12] = target: DLG4_3, P78352
[13] = target: PDZRN4_1, Q6ZMN7
[14] = target: T5, DFNB31_3, Q9P202
[15] = target: T6, GRIP1_7, Q9Y3R0
[16] = target: T7, SYNJ2BP, P57105
[17] = target: T8, DFNB31_2, Q9P202
[18] = target: GRIP2_3, Q9C0E4
[19] = target: T9, SHANK1, Q9Y566
[20] = target: T10, PTPN13_1, Q12923
[21] = target: T11, MPP6, Q9NZW5
[22] = target: DLG4_2, P78352
[23] = target: T12, APBA1_1, Q02410
[24] = target: TJP1_3, Q07157
[25] = target: CASK, O14936
[26] = target: GRID2IP_1, A4D2P6
GRID2IP_1, A4D2P6, sequence (A4D2P6 1-87): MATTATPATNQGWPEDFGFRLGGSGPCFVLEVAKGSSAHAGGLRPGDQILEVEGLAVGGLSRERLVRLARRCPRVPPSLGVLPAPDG

MAST1, Q9Y2H9, sequence (Q9Y2H9 962-1065): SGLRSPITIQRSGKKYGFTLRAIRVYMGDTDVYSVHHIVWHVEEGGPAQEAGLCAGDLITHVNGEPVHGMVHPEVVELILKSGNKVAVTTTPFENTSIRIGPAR
DLG4_2, P78352, sequence (P78352 155-259): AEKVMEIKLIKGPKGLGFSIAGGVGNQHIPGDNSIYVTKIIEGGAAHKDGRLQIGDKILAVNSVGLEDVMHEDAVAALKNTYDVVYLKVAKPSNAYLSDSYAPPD
PDZRN4_1, Q6ZMN7, sequence (Q6ZMN7 213-318): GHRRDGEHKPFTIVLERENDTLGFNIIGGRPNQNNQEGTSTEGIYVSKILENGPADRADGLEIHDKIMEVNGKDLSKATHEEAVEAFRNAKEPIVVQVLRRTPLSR
CASK, O14936, sequence (O14936 487-570): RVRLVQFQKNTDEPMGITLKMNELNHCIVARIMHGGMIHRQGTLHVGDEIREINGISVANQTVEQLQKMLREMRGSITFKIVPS
Inadl_8, Q8NI35, sequence (Q8NI35 1425-1530): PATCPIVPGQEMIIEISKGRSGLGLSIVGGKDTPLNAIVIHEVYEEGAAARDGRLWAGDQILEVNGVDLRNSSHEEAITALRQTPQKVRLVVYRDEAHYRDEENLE
DLG4_3, P78352, sequence (P78352 306-403): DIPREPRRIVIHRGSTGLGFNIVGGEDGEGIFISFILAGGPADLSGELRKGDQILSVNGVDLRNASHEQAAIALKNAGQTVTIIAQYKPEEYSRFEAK
GRIP2_3, Q9C0E4, sequence (Q9C0E4 238-339): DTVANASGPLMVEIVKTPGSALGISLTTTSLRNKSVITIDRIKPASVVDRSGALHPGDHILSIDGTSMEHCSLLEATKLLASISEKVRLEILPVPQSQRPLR
MAGI1_1, Q96QZ7, sequence (Q96QZ7 1-106): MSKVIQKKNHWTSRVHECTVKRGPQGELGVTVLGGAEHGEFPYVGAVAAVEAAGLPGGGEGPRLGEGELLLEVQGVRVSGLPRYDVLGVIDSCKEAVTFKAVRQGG
NHERF2_2, Q15599, sequence (Q15599 142-238): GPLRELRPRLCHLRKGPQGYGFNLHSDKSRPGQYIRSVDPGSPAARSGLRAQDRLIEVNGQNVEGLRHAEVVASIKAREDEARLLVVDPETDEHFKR
FRMPD2_2, Q68DX3, sequence (Q68DX3 944-1038): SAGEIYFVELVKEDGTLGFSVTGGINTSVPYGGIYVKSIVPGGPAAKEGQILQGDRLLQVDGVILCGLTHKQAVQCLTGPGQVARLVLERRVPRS
TJP1_3, Q07157, sequence (Q07157 416-512): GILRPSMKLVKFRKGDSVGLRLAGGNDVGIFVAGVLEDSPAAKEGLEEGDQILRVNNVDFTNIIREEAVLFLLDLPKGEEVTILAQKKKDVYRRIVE
MAGI1_2, Q96QZ7, sequence (Q96QZ7 456-580): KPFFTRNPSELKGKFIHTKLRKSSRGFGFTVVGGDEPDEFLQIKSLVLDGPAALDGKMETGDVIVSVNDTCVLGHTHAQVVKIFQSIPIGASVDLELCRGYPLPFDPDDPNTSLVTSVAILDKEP

Binder	pKd [1]	pKd [2]	pKd [3]	pKd [4]	pKd [5]	pKd [6]	pKd [7]	pKd [8]	pKd [9]	pKd [10]	pKd [11]	pKd [12]	pKd [13]	pKd [14]	pKd [15]	pKd [16]	pKd [17]	pKd [18]	pKd [19]	pKd [20]	other results
PEYLGLDVPV [ERBB2, P04626]	below the threshold	below the threshold	below the threshold	3.98	below the threshold	below the threshold	below the threshold	below the threshold	below the threshold	below the threshold	below the threshold	below the threshold	3.52	below the threshold	3.52	below the threshold	below the threshold	below the threshold	below the threshold	below the threshold	pKd [21]: below the threshold; pKd [22]: 3.48; pKd [23]: below the threshold; pKd [24]: below the threshold; pKd [25]: below the threshold; pKd [26]: below the threshold
AKPSRISTVV [IQSEC2, Q5JU85]	below the threshold	below the threshold	4.35	4.28	3.89	below the threshold	3.49	5.21	below the threshold	below the threshold	4.82	4.18	below the threshold	below the threshold	below the threshold	4.51	below the threshold	below the threshold	3.96	below the threshold	pKd [21]: below the threshold; pKd [22]: 5.31; pKd [23]: below the threshold; pKd [24]: below the threshold; pKd [25]: below the threshold; pKd [26]: below the threshold
DDPSTAETVL [ABCA7, Q8IZY2]	below the threshold	below the threshold	below the threshold	4.88	below the threshold	4.42	below the threshold	4.98	below the threshold	below the threshold	below the threshold	below the threshold	4.66	3.63	below the threshold	4.16	below the threshold	below the threshold	4.74	below the threshold	pKd [21]: below the threshold; pKd [22]: 3.7; pKd [23]: below the threshold; pKd [24]: below the threshold; pKd [25]: below the threshold; pKd [26]: below the threshold
HLRARKSEWV [GJD4, Q96KN9]	below the threshold	below the threshold	below the threshold	below the threshold	3.59	below the threshold	3.57	below the threshold	below the threshold	below the threshold	below the threshold	below the threshold	below the threshold	below the threshold	below the threshold	4.2	below the threshold	below the threshold	below the threshold	below the threshold	pKd [21]: below the threshold; pKd [22]: 4.11; pKd [23]: below the threshold; pKd [24]: 4.67; pKd [25]: below the threshold; pKd [26]: below the threshold
TSQESEDTYL [TBC1D10A, Q9BXI6]	below the threshold	below the threshold	below the threshold	4.71	below the threshold	5.52	below the threshold	3.9	below the threshold	below the threshold	below the threshold	below the threshold	3.8	4	below the threshold	3.93	below the threshold	below the threshold	4.99	below the threshold	pKd [21]: below the threshold; pKd [22]: below the threshold; pKd [23]: below the threshold; pKd [24]: below the threshold; pKd [25]: below the threshold; pKd [26]: below the threshold
